One block for each substance: values may come before it.
Columns and labels:
porcine CD86 (porcine) = test: cell-based or functional assay
[1] = molecular target: human CTLA4-human CD59 chimeric molecule with a human CD59 leader sequence and an (AS)3 linker (human); test: flow cytometry, PAEC Control-hCCm (pig #51, medium hCTLA4-hCD59); mean ± SE, n=4
[2] = molecular target: human CTLA4-human CD59 chimeric molecule with a human CD59 leader sequence and an (AS)3 linker (human); test: flow cytometry, PAEC Control-hCCh (pig #51, high hCTLA4-hCD59); mean ± SE, n=4
[3] = molecular target: human CTLA4-human CD59 chimeric molecule with a human CD59 leader sequence and an (AS)3 linker (human); test: flow cytometry, PAEC HT 48-hCCl (low hCTLA4-hCD59); mean ± SE, n=4
[4] = molecular target: human CTLA4-human CD59 chimeric molecule with a human CD59 leader sequence and an (AS)3 linker (human); test: flow cytometry, PAEC HT 49-hCCm (medium hCTLA4-hCD59); mean ± SE, n=4
human CD28 (human) = human CD28 (human) (UniProt P10747); test: cell-based or functional assay
Sequence of UniProt P10747 (P10747 19-220): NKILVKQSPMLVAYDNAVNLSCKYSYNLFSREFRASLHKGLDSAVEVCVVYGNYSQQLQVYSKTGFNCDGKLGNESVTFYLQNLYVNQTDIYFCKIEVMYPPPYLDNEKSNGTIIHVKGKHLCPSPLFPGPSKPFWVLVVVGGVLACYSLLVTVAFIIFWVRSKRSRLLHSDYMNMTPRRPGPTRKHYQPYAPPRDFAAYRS

Sequence of human CTLA4-human CD59 chimeric molecule with a human CD59 leader sequence and an (AS)3 linker (human) (chain, as listed by the source mutant limits assumed): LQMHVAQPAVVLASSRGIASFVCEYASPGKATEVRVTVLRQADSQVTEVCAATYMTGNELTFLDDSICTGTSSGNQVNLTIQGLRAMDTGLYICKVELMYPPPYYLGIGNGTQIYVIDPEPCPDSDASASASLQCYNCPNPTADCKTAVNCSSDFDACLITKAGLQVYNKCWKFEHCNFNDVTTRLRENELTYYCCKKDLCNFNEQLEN

IL-2 secreted from Jurkat cells co-cultured with PI-PLC treated hCTLA4-hCD59 PAEC (porcine CD86 (porcine)): 570 pg/mL
IL-2 secreted from Jurkat cells co-cultured with hCTLA4-hCD59 PAEC (fold decrease) (porcine CD86 (porcine)): 5
Substance: human CTLA4-human CD59 chimeric molecule with a human CD59 leader sequence and an (AS)3 linker

mean fluorescence intensity [1]: 101 MFI
mean fluorescence intensity [2]: 112 MFI
mean fluorescence intensity [3]: 10.2 MFI
mean fluorescence intensity [4]: 30.9 MFI
Substance: mouse monoclonal antibody BNI3 (Immunotech), specific for hCTLA4

IL-2 secreted from Jurkat cells co-cultured with vector control PAEC and PHA (ELISA) (human CD28 (human)): 400 pg/mL
Substance: porcine CD86 (ligand)
